One block for each binder: values may come before it.
Key:
[1] = molecular target: T1, Epidermal Growth Factor Receptor variant III (EGFRvIII) (UniProt P00533 25-1210); experiment: flow cytometry on 293T^EGFRvIII cells, anti-myc and anti-biotin detection
T1 construct: whole, on cells
Procedure: The bound antibodies were detected either via their myc-epitope using anti-myc/FITC antibody or via their biotin residue using anti-biotin/PE antibody (1:10; Miltenyi Biotec, Bergisch Gladbach, Germany). Cells stained only with secondary antibody were included as a control. […] At least 10,000 stained cells were measured by flow cytometry (MACSQuant, Miltenyi Biotec, Bergisch Gladbach, Germany) and analyzed by FlowJo software version 7.6.5 (TreeStar Inc., Ashland, USA).
In this case the AM1-antibodies served as negative controls. Binding of scFvs and of scFv-P-BAPs was visualized with secondary anti-myc-PE (grey histograms in upper and middle graphs). […] Open histograms represent control staining only using secondary antibodies or an IgG-PE isotype control. […] Recombinant proteins were separated using SDS-PAGE, with parental single chain antibodies serving as controls. Blots were subsequently stripped and re-probed with biotin antibodies.

[2] = molecular target: T2, Prostate Stem Cell Antigen (PSCA) (human, UniProt O43653 12-83); experiment: flow cytometry titration on 293T^PSCA cells, anti-myc-PE detection (Example 7, FIG. 9)
T2 construct: whole, on cells
T2 sequence (looked up): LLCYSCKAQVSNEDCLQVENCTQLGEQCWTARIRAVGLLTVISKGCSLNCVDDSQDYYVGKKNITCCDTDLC
Procedure: After detection with a secondary anti-myc-PE-antibody the MFIs were determined using a MACSQuant Cytometer (Miltenyi Biotech) and FlowJo software and the Kd values were calculated with the PRISM software program. FIG. 9 depicts the graphs for the KD value calculations.

B1: scFv(AM1)-P-BAP (scFv)
scFv: DAAQPARRARRTKLGTELGSQVKLQESGGGLVQPGGSLKLSCVASGFTFSSYTMSWVRRTPEKRLEWVAYIHNGGGHTYYPDTIKGRFTISRDNAKNTLFLEMSSLKSEDTAMYYCTRRMYYGNSHWYFDVWGAGTSVTVSSAKTTPPSVYGGGGSGGGGSGGGGSTNSDIVMTQSPSSLSASLGDRVTINCRTSQDISNYLNWYQLTPDGTVKLLIYYTLKLNSGVPSRFSGSGSGTDYSLTINNLEKEDFATYFCQQSKTLPWTFGGGTKLEIKRADAAPTVSGPKLSSKLKVTVNGTAYDVDVDVDKSHENPMGTILFGGGTGGAPAPAAGGAGAGKAGEGEIPAPLAGTVSKILVKEGDTVKAGQTVLVLEAMKMETEINAPTDGKVEKVLVKERDAVQGGQGLIKIGDLELIEGSSGPEQKLISEEDLNSAVDHHHHHH
modifications: mono-biotinylated at the C-terminal P-BAP (PSTCD biotin acceptor domain) when produced in 293T-huBirA cells
notes: PSCA-specific murine scFv derived from 7F5, fused to P-BAP, with myc tag and His6; also called murine scFv(AM1)-BAP
binding result [1]: no binding (tested: 1 µg scFv on 2×10^5 cells)

binding result [1]: binds
B2: scFv(MR1.1)-P-BAP (scFv)
scFv: DAAQPARRARRTKLGTELGSHMQVKLQQSGGGLVKPGASLKLSCVTSGFTFRKFGMSWVRQTSDKRLEWVASISTGGYNTYYSDNVKGRFTISRENAKNTLYLQMSSLKSEDTALYYCTRGYSPYSYAMDYWGQGTTVTVSSSGGGSGGGGSGGGGSDIELTQSPASLSVATGEKATIRCMTSTDIDDDMNWYQQKPGEPPKFLISEGNTLRPGVPSRFSSSGTGTDFVFTIENTLSEDVGDYYCLQSWNVPLTFGDGTKLEITKLSSKLKVTVNGTAYDVDVDVDKSHENPMGTILFGGGTGGAPAPAAGGAGAGKAGEGEIPAPLAGTVSKILVKEGDTVKAGQTVLVLEAMKMETEINAPTDGKVEKVLVKERDAVQGGQGLIKIGDLELIEGSSGPEQKLISEEDLNSAVDHHHHHH
modifications: mono-biotinylated at the C-terminal P-BAP (PSTCD biotin acceptor domain)
notes: EGFRvIII-specific scFv fused to P-BAP

fold better affinity (KD value) than the parental murine scFv(AM1) [2]: 100 fold
B3: scFv(h-AM1)-BAP (scFv)
scFv: DAAQPARRARRTKLGTELGSEVQLLESGGGLVQPGGSLRLSCVASGFTFSSYTMSWVRQAPGKGLEWVSYIHNGGGHTYYADSVKGRFTISRDNSKNTLYLQMNSLRAEDTAVYYCTRRMYYGNSHWYFDVWGAGTRVTITSAKTTPPSVYGGGGSGGGGSGGGGSTNSDIQMTQSPSSLSASVGDRVTITCRTSQSISNYLNWYQQKPGKAPKLLIYYTLKLNSGVPSRFSGSGSGTDFTLTISSLQPEDFATYYCQQSKTLPWTFGGGTKLEIKRADAAPTVSGPEQKLISEEDLNSAVDMSGLNDIFEAQKIEWHEGAPSSHHHHHH
modifications: mono-biotinylated at the C-terminal BAP (Bio-Tag)
notes: Fully humanized PSCA-specific scFv with N-terminal Ig kappa leader in the construct and C-terminal c-Myc tag, Bio-Tag and His6; also called humanized scFv(h-AM1)
